From patent publication US20240279345A1, “ALPHA 5 BETA 1 INTEGRIN BINDING AGENTS AND USES THEREOF” (PASITHEA THERAPEUTICS CORP., priority 2021, published 2024)
Where a chain is given by its changes, count along the chain named. Blank lines part the entries; values can stand above or below the molecule they belong to.

Legend:
[1] = biological target: α5β1 integrin on U87MG cells (human, UniProt P08648 42-1049; P05556 21-798); assay: cell-based or functional assay
[2] = biological target: T1, recombinant mouse α5β1 integrin (mouse, UniProt P11688 45-999; P09055 21-728); assay: ELISA, coated integrin, supernatant 1:10
T1 construct: bought recombinant heterodimer (R&D Systems cat. 7728-A5) coated on the plate; also called rm-α5β1
Description: (§1) Plates were washed 3 times with Wash Buffer (1× Tris Buffered Saline containing 0.05% Tween20), blocked with 2% BSA in 1×TBS (made from 10× Thermo Scientific Blocker BSA (10×) in TBS; Thermo Fisher Scientific, Waltham, MA, cat. no. 37520) for 2 hours at room temperature (RT) then incubated with hybridoma supernatants diluted 1:10 with Standard Diluent (2% BSA, 1×TBS, 0.05% Tween20). […] Absorbance 450 nm was measured.

[3] = biological target: T2, recombinant human α5β1 integrin (human, UniProt P08648 42-995; P05556 21-728); assay: ELISA, coated integrin, supernatant 1:10
T2 construct: also called rh-α5β1
T2 sequence (P08648 42-995 limits assumed, form in doubt, chain 1 of 2): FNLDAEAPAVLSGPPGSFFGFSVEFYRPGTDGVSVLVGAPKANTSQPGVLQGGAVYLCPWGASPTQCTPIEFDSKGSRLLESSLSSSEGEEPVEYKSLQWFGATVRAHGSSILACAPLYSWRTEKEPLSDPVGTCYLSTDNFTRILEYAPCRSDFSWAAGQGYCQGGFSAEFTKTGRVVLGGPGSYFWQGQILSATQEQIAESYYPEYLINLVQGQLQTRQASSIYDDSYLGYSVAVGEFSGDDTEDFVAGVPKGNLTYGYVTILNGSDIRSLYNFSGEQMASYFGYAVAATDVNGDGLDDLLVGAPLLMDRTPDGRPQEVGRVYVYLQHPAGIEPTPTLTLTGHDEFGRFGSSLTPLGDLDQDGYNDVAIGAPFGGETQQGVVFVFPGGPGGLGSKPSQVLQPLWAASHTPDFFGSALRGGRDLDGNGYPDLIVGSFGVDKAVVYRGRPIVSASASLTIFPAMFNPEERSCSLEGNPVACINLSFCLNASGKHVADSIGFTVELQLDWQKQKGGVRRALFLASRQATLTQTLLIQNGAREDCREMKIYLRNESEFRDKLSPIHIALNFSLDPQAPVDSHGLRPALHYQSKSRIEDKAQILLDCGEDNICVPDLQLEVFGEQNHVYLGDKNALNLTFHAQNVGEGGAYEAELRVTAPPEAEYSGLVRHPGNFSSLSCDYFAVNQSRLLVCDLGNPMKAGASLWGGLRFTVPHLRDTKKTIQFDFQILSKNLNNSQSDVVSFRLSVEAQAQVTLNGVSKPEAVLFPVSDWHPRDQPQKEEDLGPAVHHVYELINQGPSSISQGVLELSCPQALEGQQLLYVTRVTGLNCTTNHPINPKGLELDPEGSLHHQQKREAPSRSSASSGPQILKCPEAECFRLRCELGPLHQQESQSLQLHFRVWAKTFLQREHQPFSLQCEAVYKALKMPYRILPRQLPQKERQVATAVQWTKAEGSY
T2 sequence (P05556 21-728 limits assumed, form in doubt, chain 2 of 2): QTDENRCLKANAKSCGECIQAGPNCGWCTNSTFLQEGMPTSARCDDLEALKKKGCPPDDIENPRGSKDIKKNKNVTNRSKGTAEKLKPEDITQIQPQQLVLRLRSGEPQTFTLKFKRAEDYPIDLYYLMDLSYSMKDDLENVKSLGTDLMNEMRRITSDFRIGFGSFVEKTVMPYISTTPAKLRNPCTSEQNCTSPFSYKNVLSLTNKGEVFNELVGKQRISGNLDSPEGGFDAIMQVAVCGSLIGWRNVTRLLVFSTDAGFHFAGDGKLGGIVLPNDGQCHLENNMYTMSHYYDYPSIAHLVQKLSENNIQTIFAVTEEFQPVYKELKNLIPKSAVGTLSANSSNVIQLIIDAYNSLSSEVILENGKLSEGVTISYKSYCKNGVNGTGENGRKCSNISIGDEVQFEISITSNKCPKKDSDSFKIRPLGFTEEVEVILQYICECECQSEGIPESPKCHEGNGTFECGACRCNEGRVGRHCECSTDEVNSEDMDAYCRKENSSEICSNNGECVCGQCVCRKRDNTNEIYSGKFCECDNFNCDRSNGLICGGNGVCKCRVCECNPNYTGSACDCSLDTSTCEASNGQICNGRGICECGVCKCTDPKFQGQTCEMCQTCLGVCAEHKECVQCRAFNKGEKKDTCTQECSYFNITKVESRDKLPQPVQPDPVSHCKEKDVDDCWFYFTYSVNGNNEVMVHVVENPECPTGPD
Description: as §1

[4] = biological target: T3, recombinant human α4β1 integrin (human, UniProt P13612 34-977; P05556 21-728); assay: ELISA, coated integrin, supernatant 1:10
T3 construct: bought recombinant heterodimer (R&D Systems cat. 5668-A4) coated on the plate; also called rh-α4β1
T3 sequence (P13612 34-977 limits assumed, form in doubt, chain 1 of 2): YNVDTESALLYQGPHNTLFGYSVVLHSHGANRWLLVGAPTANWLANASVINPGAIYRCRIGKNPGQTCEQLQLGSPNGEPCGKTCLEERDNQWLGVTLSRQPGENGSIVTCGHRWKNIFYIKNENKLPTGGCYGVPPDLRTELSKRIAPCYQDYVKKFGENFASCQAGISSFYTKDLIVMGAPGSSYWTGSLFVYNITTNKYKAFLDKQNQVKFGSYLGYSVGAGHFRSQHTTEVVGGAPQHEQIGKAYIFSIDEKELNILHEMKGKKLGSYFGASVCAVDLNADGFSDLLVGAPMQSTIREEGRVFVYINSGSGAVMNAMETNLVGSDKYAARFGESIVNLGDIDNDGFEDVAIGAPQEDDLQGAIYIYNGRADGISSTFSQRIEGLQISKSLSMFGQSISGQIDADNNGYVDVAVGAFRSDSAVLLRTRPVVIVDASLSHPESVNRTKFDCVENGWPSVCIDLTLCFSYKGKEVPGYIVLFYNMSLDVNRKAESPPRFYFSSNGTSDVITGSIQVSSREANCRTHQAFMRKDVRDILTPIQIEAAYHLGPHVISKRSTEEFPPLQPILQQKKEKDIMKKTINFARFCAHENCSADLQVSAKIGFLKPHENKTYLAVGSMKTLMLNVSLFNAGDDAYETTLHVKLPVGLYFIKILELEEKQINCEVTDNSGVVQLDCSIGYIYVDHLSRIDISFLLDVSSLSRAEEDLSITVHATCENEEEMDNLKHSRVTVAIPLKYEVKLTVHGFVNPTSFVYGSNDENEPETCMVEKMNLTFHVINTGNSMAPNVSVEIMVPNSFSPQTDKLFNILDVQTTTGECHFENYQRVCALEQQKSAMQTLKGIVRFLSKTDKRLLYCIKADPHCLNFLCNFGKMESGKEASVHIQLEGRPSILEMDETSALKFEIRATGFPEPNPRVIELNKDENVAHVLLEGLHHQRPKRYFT
T3 sequence (P05556 21-728 limits assumed, form in doubt, chain 2 of 2): as the sequence (P05556 21-728 limits assumed, form in doubt, chain 2 of 2) above
Description: as §1

[5] = biological target: T4, α5β1 integrin on cells (PMA-activated K562 cells; U87MG cells) (human, UniProt P08648 42-1049; P05556 21-798); assay: flow cytometry on PMA-activated K562 cells, hybridoma supernatant
T4 construct: Endogenous integrin of human cell lines; also called cellular α5β1 integrin; cell surface α5β1 integrin receptors
T4 sequence (P08648 42-1049 limits assumed, chain 1 of 2): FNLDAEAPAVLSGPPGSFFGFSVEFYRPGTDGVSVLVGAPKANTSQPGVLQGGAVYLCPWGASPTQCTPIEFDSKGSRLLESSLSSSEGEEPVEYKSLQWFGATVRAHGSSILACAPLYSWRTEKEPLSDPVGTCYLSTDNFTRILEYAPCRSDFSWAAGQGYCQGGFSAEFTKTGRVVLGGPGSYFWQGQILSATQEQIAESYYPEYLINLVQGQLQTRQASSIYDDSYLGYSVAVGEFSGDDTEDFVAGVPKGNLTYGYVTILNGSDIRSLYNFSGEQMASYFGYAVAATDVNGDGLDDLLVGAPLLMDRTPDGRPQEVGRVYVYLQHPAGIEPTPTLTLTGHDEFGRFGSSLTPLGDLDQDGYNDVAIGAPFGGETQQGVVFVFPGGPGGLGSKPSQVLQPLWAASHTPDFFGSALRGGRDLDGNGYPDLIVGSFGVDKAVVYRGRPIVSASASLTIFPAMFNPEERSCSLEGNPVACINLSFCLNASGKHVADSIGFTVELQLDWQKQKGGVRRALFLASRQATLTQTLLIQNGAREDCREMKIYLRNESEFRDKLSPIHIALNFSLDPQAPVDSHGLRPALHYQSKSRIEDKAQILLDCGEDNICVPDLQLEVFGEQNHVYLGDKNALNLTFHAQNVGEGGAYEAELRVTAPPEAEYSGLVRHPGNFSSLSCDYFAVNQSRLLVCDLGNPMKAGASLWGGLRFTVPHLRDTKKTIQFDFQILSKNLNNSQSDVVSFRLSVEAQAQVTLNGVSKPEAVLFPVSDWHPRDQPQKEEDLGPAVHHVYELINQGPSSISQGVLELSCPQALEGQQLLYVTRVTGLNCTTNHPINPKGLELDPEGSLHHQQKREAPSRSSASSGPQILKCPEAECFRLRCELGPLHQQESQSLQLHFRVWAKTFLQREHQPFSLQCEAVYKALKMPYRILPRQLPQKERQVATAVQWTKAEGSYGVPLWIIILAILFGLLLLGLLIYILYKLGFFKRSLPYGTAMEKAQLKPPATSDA
T4 sequence (P05556 21-798 limits assumed, chain 2 of 2): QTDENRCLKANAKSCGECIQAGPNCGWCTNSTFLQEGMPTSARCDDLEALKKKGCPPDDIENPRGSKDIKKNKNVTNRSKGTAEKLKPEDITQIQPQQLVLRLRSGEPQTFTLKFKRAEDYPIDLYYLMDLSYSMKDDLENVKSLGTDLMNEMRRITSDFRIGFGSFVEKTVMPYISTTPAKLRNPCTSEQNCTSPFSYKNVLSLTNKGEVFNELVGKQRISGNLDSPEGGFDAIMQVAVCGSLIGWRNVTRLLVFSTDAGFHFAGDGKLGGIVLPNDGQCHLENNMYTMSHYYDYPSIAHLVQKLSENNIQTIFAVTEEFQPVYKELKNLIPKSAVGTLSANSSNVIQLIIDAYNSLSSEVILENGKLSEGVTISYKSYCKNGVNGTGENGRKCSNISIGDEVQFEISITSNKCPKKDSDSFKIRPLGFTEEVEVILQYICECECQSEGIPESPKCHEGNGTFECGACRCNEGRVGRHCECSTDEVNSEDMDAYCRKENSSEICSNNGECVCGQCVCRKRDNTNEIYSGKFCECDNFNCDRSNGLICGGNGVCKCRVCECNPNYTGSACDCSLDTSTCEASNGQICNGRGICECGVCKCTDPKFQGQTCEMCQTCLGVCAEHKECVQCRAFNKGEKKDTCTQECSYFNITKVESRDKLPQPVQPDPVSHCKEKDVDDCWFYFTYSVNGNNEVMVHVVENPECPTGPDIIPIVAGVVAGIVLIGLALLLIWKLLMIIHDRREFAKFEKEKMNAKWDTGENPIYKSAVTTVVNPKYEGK
Description: Four weeks later cells from spleens and draining lymph nodes were fused to create hybridomas. […] In short, hybridoma supernatants were incubated with the activated K562 cells for 20 minutes, washed, then incubated with a fluorescent conjugated detecting antibody for 20 minutes, washed, resuspended in 7-Aminoactinomycin D, and Mean Fluorescence Intensity (MFI) measured on a Guava cytometer (Luminex Corporation, Austin, TX 78727).

Cell Counts (Curve Bottom) [1]: 32000 cells
Cell Counts (Curve Top) [1]: 50000 cells
Molecule: IgG4 Isotype (antibody)

Absorbance 450 nm [2]: 0.671 A450
B1: A-3A08 (antibody, V domains shown)
VH: QVQLKESGPGLVAPSQSLSITCTISGFSLTTYGVHWVRQPPGKGLEWLVVIWSDGSTTYNSALKSRLNITKDNSKSQVFLKMNSLQTDDTAMYYCVRHGGLLRRDAMDYWGQGTSVTVSS
VL: QIVLTQSPAIMSASLGERVTMTCTASSSVSSNSFHWYQQKPGSSPKLWLYSTSNLASGVPARFSGSGSGTSYSLTISSMEAEDAATYYCHQYLRSPPTFGGGTKLEIK

Absorbance 450 nm [3]: 0.824 A450
Absorbance 450 nm [2]: 0.0924 A450
Absorbance 450 nm [4]: 0.0855 A450
B2: A-15B08 (antibody, V domains shown)
VH: QVQLKESGPGLVAPSQSLSITCTISGFSLTSYGVHWVRQPPGKGLEWLVVIWSDGSTTYNSTLKSRLSISKDNSKSQVFFKMNSLQTDDTAMYYCARHYDYDGDWFAYWGQGTLVTVSA
VL: B1 VL with S28R, F34L, L49I
notes: mouse hybridoma supernatant in this assay

Absorbance 450 nm [3]: 0.805 A450
Absorbance 450 nm [2]: 0.0872 A450
Absorbance 450 nm [4]: 0.165 A450
B3: C-8G11 (antibody, V domains shown)
VH: QVQLKESGPDLVAPSQSLSITCTVSGFSLTDYGVHWVRQPPGKGLEWLVVIWSDGSTTYNSALKSRLSITKDTSKRQVFLKMNSLQTDDTAMYYCARHAPSFIRYGSRYDALDYWGQGTSVTVSS
VL: B1 VL with M21L, S30T, N32S, S33F, F34L, L49I, L93H
notes: mouse hybridoma supernatant

MFI [5]: 1610
B4: A-11G01 (antibody, V domains shown)
VH: B1 VH
VL: B1 VL
notes: mouse hybridoma

Absorbance 450 nm [3]: 0.352 A450
Absorbance 450 nm [4]: 0.0769 A450
B5: A-3A08 (antibody, V domains shown)
VH: B1 VH
VL: B1 VL
notes: mouse hybridoma supernatant

Absorbance 450 nm [3]: 0.519 A450
Absorbance 450 nm [2]: 0.0766 A450
Absorbance 450 nm [4]: 0.0843 A450
B6: A-11G01 (antibody, V domains shown)
VH: B1 VH
VL: B1 VL
notes: mouse hybridoma supernatant

MFI [5]: 742
B7: A-7D06 (antibody, V domains shown)
VH: B1 VH
VL: B1 VL
notes: mouse hybridoma

MFI [5]: 1180
B8: A-3A08 (antibody, V domains shown)
VH: B1 VH
VL: B1 VL
notes: mouse hybridoma

Absorbance 450 nm [3]: 0.613 A450
Absorbance 450 nm [2]: 0.0755 A450
Absorbance 450 nm [4]: 0.0848 A450
B9: A-7D06 (antibody, V domains shown)
VH: B1 VH
VL: B1 VL
notes: mouse hybridoma supernatant

Absorbance 450 nm [3]: 0.702 A450
Absorbance 450 nm [2]: 0.17 A450
Absorbance 450 nm [4]: 0.171 A450
B10: C-14D12 (antibody, V domains shown)
VH: B3 VH
VL: B1 VL with M21L, S30T, N32S, S33F, F34L, L49I, L93H
notes: as for B2

% Inhibition [1]: 78%
Cell Counts (Curve Bottom) [1]: 8040 cells
Cell Counts (Curve Top) [1]: 37200 cells
B11: C-14D12 IgG4 Chimera (antibody, V domains shown)
VH: B3 VH
VL: B1 VL with M21L, S30T, N32S, S33F, F34L, L49I, L93H

% Inhibition [1]: 86%
Cell Counts (Curve Bottom) [1]: 4780 cells
Cell Counts (Curve Top) [1]: 33800 cells
B12: A-15B08 IgG4 Chimera (antibody, V domains shown)
VH: B2 VH
VL: B1 VL with S28R, F34L, L49I

Absorbance 450 nm [3]: 0.687 A450
Absorbance 450 nm [2]: 0.0959 A450
Absorbance 450 nm [4]: 0.0801 A450
B13: A-4G02 (antibody, V domains shown)
VH: B2 VH
VL: B1 VL with S28R, F34L, L49I
notes: mouse hybridoma supernatant

Absorbance 450 nm [3]: 1.17 A450
Absorbance 450 nm [2]: 0.11 A450
Absorbance 450 nm [4]: 0.108 A450
B14: A-14G08 (antibody, V domains shown)
VH: QVQLQQPGAELVKPGASVKLSCKASGYTFTIYWINWVKQRPGQGLEWIGKIYPGSISTDYNEKFKSKATLTVDTSSSTAYMQLSSLTSDDSAVYYCAITGTGGLAYWGQGTLVTVSA
VL: ENVLTQSPAIMSASLGEKVTMTCRASSSVNYMYWYQQKSDASPKLWIYFTSSLAPGVPGRFSGSGSGNSYSLTISTMEGEDAATYYCQQFTTSPFTFGSGTKLEIK
notes: mouse hybridoma supernatant

MFI [5]: 6570
B15: A-15H11 (antibody, V domains shown)
VH: B14 VH
VL: B14 VL
notes: mouse hybridoma

Absorbance 450 nm [3]: 1.25 A450
Absorbance 450 nm [2]: 0.0799 A450
Absorbance 450 nm [4]: 0.081 A450
B16: A-15H11 (antibody, V domains shown)
VH: B14 VH
VL: B14 VL
notes: mouse hybridoma supernatant
